Biological target: human c-Src kinase domain (residues 260-528) (human) (UniProt P12931)

With Ac-GPDECIYDMFPFKKKG-NH2 [Src Consensus peptide Ac-…-NH2] the KM (μM) of phosphorylation, Michaelis-Menten analysis, ADP-Quest assay was 196 µM.

Reference: paper PMC10065799, “High-throughput profiling of sequence recognition by tyrosine kinases and SH2 domains using bacterial peptide display” (eLife, 2023)
